Source: paper PMC5282582
Substitutions are numbered along the chain they refer to. Names may count otherwise. Values belong to the binder of their own block, whether it stands above or below them.

How the values were obtained:
[1] = target: the molecule itself; experiment: SEC-MALS; 100 μl of purified protein injected at 2 mg/ml (low concentration); Superdex 200 10/300 GL, room temperature, 10 mM HEPES pH 7.4, 200 mM NaCl, 5 mM β-ME, 0.4 ml/min
[2] = target: β subunit of human NAD-dependent isocitrate dehydrogenase (human); experiment: SDS-PAGE of the co-purified complex; subunits co-expressed in E. coli, purified as a complex by the His6 tag of β or γ (Ni-NTA, TEV cleavage, second Ni-NTA, gel filtration); 12% SDS-PAGE with Coomassie blue staining, intensity of the two bands; conditions: both partners purified
[3] = target: T1, γ subunit of human NAD-dependent isocitrate dehydrogenase (human, UniProt P51553 40-393); experiment: as above; conditions: both partners purified
T1 construct: γ subunit of human NAD-IDH (IDH3G); the N-terminal 39 residues (mitochondrial signal peptide) were removed during construction; a TEV protease site stood between the subunit and the His6 tag; residues of the site may remain after cleavage; also called IDH3G; regulatory subunit; not shown: His6, C-terminal, cleaved
T1 sequence (looked up): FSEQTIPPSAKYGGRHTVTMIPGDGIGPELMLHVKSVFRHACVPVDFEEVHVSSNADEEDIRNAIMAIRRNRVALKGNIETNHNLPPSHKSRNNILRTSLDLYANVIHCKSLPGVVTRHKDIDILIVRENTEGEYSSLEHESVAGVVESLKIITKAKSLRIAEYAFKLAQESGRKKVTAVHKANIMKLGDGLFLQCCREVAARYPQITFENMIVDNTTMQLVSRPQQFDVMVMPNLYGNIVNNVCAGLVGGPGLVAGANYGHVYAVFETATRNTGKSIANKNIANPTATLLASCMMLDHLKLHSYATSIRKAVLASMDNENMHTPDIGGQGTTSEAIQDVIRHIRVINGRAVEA

Sequence of β subunit of human NAD-dependent isocitrate dehydrogenase (human) (chain, as listed by the source): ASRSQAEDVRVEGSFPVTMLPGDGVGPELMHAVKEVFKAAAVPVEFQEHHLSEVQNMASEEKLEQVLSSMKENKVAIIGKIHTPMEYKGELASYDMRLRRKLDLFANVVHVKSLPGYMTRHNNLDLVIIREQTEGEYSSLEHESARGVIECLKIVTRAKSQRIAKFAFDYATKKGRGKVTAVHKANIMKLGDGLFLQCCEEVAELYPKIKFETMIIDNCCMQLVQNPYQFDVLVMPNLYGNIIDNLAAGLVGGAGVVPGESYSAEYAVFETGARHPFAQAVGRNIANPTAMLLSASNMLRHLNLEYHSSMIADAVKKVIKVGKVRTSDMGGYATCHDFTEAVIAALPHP

B1: mutant α_(Y126F)βαγ heterotetramer of human NAD-dependent isocitrate dehydrogenase (complex)
chain 1: TGGVQTVTLIPGDGIGPEISAAVMKIFDAAKAPIQWEERNVTAIQGPGGKWMIPSEAKESMDKNKMGLKGPLKTPIAAGHPSMNLLLRKTFDLYANVRPCVSIEGYKTPYTDVNIVTIRENTEGEFSGIEHVIVDGVVQSIKLITEGASKRIAEFAFEYARNNHRSNVTAVHKANIMRMSDGLFLQKCREVAESCKDIKFNEMYLDTVCLNMVQDPSQFDVLVMPNLYGDILSDLCAGLIGGLGVTPSGNIGANGVAIFESVHGTAPDIAGKDMANPTALLLSAVMMLRHMGLFDHAARIEAACFATIKDGKSLTKDLGGNAKCSDFTEEICRRVKDLD
chain 2: not shown
chain 3: B1 chain 1 with F126Y
chain 4: T1 sequence (looked up)
- stoichiometry N [1]: 2

B2: mutant αβα_(Y126F)γ heterotetramer of human NAD-dependent isocitrate dehydrogenase (complex)
chain 1: B1 chain 1 with F126Y
chain 2: not shown
chain 3: B1 chain 1
chain 4: T1 sequence (looked up)
- stoichiometry N [1]: 2

- stoichiometry N [2]: 1
- stoichiometry N [3]: 1
B3: α subunit of human NAD-dependent isocitrate dehydrogenase (natural protein, UniProt P50213 28-366, looked up)
chain: B1 chain 1 with F126Y
notes: α subunit of human NAD-IDH (IDH3A); the N-terminal 27 residues (mitochondrial signal peptide) were removed during construction; cloned in the co-expression vector pQlinkN; gene bought from FulenGen in pReceiver-B01/B02; also called IDH3A; catalytic subunit
